Data set [1] addresses T1, FN fibrils (Mus musculus, UniProt P11276).
T1 construct: endogenous in cells; host or cells: NIH 3T3 fibroblasts
Nature of the data set: Fusion proteins tested in fibroblast culture for FN fibril binding. Type of data set: cell-based. As for the experimental part: (§1) Following purification using glutathione affinity chromatography, the fusion proteins was tested in fibroblast culture to determine if they maintained the properties seen in the phage.

In another data set the test system is FN matrix accumulation. Nature of the data set: Fusion proteins tested in fibroblast culture for impact on matrix accumulation. Type of data set: cell-based. As for the experimental part: as §1
Another data set deals with FN matrix assembly. Nature of the data set: FN matrix accumulation in the presence of phage clones (immunofluorescence, immunoblots of DOC-insoluble FN). It counts as cell-based. An excerpt: Beyond the ability of the isolated phage clones to bind FN matrix, their potential capacity to modulate matrix accumulation was considered. Given that the clones were panned against a FN fragment containing the assembly domain, it was questioned if they might modulate FN matrix assembly.
A general note: Immunoblotting shows a protein as a band on a membrane.

In data set [2] the target is T1, FN fibrils. Briefly: Phage binding to FN fibrils of fixed confluent NIH 3T3 fibroblasts (co-staining for M13 phage and FN). Type of data set: cell-based. As for the experimental part: Confluent NIH 3T3 fibroblasts, which have been well characterized to assemble a dense, fibrillar FN matrix, were used to test phage binding to FN fibrils. Cells were fixed, blocked, and incubated with individual phage clones, then co-stained with antibodies to M13 phage and FN and imaged. Most phage-monolayers looked like the negative control and contained infrequent phage signals that were not aligned with the FN matrix. Several of the clones generated a pattern of phage staining that had some co-localization with FN fibrils but also appeared to contain some phage aggregates.

In data set [3] the target is T1, FN fibrils. Nature of the data set: Phage clones incubated with growing fibroblast cultures actively assembling matrix; overlap of phage and FN signal. It counts as cell-based. Particulars: for Manders' coefficient with a higher concentration of phage: high concentration phage stocks. On the procedure:
FIGS. 4A-4C are representative photomicrographs of fixed and stained assembled matrices after clone 2 (1×10^12 pfu/mL) was incubated with NIH 3T3 fibroblasts for 2 days, and specifically stained for FN (4A) and phage (4B), as well as a merge of the two images (4C). Insets in 4A and 4B are maximum intensity projections of a single fibril obtained through confocal microscopy from the S2 condition for FN (4A) and phage (4B).
Phage S2 and S2-based phages, effectively label fibrils as they are being assembled.
(§2) To further analyze the interaction between the isolated phages and FN fibrils, each phage clone was incubated with growing fibroblast cultures that were actively assembling matrix. Monolayers were then stained for both phage and FN and resulting images were analyzed to assess the amount of overlap between phage and FN signal. […] To quantify the extent of phage overlap with FN fibrils, Manders' coefficients were generated, which define the percent overlap between the two image channels. Manders' coefficients reveled the percent overlap of the phage fluorescence with FN was highest for clone S2 (Manders' coefficient 0.91). A summary of all Manders' coefficients and phage characterizations can be found in Table 2.
Clone 2 staining was extremely robust and images of matrix assembled in the presence of a higher concentration of phage appeared to have more coverage of fibrils by phage. […] For clone 12, it appears that adding more phage led to higher background staining. […] This is further supported by confocal images depicting a single fibril from a clone 2 incubation in which there is significant overlap between phage and FN at the level of a single fibril.

The next data set has as its system FN matrix. Briefly: Immunoblot comparing effects of S3 and S20 against a control on formation of FN matrix (FIG. 2). It counts as cell-based. As for the experimental part: FIG. 2 is an immunoblot comparing the effects of S3 and S20 against a control on the formation of FN matrix.
Referring to FIG. 2, when incubated with cells during matrix assembly, S20 can enhance matrix formation by 60%.

Substrate in data set [4]: FN matrix (fibronectin fibrils) assembled by NIH 3T3 fibroblasts (UniProt P11276)
Nature of the data set: phage incubated with fibroblasts assembling matrix; overlap of phage fluorescence with FN stain.

Data set [5] deals with T2, FN matrix (fibronectin fibrils) assembled by NIH 3T3 fibroblasts (UniProt P11276 33-2477, limits assumed).
T2 construct: whole, on cells; Fibrillar, cell-assembled fibronectin matrix; also called FN fibrils
T2 sequence (P11276 33-2477 limits assumed): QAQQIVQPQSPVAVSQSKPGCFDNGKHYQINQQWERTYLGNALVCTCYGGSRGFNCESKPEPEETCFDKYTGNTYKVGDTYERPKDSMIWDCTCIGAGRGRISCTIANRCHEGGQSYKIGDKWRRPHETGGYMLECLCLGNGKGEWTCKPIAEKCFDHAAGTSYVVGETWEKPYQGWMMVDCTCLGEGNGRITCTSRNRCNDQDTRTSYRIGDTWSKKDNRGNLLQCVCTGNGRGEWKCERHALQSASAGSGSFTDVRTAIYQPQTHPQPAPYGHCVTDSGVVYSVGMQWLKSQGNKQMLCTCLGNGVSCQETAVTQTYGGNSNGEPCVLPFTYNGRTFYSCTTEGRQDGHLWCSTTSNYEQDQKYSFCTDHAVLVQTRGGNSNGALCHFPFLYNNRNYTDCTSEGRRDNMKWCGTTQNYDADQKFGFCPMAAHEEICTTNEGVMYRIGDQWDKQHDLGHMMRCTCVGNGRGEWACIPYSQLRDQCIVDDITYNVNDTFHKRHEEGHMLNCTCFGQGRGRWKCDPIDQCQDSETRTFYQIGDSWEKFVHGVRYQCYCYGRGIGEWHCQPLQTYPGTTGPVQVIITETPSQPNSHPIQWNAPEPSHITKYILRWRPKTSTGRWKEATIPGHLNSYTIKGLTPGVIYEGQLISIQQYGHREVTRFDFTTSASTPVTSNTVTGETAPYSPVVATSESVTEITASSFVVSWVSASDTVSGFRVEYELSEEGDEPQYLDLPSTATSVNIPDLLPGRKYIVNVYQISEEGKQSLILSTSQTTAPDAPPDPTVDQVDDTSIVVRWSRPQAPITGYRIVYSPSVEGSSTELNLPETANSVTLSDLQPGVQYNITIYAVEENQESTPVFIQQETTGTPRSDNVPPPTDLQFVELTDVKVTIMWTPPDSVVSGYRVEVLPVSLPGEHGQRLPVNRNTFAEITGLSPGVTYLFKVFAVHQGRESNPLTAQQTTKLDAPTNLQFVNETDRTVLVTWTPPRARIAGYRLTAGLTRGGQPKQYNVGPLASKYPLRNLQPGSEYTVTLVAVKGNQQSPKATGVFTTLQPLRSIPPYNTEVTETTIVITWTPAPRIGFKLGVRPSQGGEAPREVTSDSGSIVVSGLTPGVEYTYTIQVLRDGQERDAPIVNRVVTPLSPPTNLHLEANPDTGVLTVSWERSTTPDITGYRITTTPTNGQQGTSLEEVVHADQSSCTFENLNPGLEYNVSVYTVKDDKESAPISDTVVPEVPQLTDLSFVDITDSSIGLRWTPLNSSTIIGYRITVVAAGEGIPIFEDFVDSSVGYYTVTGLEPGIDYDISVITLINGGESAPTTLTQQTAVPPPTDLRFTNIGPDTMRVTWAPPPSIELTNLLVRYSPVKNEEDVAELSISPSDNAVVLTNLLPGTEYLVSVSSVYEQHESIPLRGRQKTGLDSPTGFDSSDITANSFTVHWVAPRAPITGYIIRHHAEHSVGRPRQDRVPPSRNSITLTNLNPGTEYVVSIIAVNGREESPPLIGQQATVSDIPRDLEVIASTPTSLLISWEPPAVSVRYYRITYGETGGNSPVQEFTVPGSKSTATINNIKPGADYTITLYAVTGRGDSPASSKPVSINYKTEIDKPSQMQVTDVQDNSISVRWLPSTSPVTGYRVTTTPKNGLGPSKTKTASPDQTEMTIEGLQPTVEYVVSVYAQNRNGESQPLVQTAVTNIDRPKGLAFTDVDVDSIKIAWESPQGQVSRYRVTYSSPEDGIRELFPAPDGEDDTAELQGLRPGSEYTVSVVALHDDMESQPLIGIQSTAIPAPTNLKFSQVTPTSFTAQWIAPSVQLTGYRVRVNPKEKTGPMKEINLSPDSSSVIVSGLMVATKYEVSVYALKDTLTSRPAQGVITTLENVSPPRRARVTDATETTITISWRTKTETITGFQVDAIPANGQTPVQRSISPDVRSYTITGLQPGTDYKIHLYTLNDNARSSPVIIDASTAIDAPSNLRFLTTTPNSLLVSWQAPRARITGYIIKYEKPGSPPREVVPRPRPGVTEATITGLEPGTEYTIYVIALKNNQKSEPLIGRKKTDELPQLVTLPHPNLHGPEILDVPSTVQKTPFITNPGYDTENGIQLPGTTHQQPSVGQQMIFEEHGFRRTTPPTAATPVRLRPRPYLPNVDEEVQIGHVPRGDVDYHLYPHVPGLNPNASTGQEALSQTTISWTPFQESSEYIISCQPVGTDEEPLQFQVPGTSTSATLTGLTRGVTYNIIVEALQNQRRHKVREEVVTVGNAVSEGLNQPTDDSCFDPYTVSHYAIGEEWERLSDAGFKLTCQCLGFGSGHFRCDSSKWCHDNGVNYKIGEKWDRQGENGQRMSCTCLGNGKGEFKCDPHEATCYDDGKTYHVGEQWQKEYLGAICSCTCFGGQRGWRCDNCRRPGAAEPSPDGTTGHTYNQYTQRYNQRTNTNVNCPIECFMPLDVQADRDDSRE
The description is as above. As for the experimental part: FIGS. 4A-4C are representative photomicrographs of fixed and stained assembled matrices after clone 2 (1×10¹² pfu/mL) was incubated with NIH 3T3 fibroblasts for 2 days, and specifically stained for FN (4A) and phage (4B), as well as a merge of the two images (4C). Insets in 4A and 4B are maximum intensity projections of a single fibril obtained through confocal microscopy from the S2 condition for FN (4A) and phage (4B).
as §2

Substrate in data set [6]: FN matrix (fibronectin fibrils) assembled by NIH 3T3 fibroblasts (UniProt P11276)
Briefly: cell-based or functional assay.

Data on 24 molecules can be found in patent US20250060359A1, “FUSION PROTEINS AND METHODS FOR MONITORING FIBRONECTIN MATRIX ASSEMBLY” (The Trustees of Princeton University, priority 2023, published 2025).

Where no end group is shown, it is not given here.

FN matrix (fibronectin fibrils) assembled by NIH 3T3 fibroblasts (UniProt P11276), sequence (P11276 33-2477 limits assumed): as above
T1 sequence (P11276 33-2477): as the sequence (P11276 33-2477 limits assumed) above

Regarding “GST-S3-GFP: fusion protein of GST, S3 peptide and GFP (NHVALWGTGTAS; not fully specified (N-terminus, C-terminus); also: fusion protein, GST dimerising)”, the FN fibril binding result with FN fibrils [1] is “no detectable FN fibril binding”. For the same molecule, the “impact on matrix accumulation” value with FN matrix accumulation is “neither the S3 or S20 fusion proteins showed any matrix binding capacity or impact on matrix accumulation”.

For the molecule NHVALWGTGTAS [Clone 3, 5, 27, 28], in the data set with FN matrix assembly, the “FN matrix accumulation by immunofluorescence” value (shortened to “FN matrix accumulation”) is reported as “without repressing FN matrix immunofluorescence signal”.

Take “S2-GFP: GST-S2-GFP after cleavage of the GST tag (GSYDWTKLPGLE; not fully specified (C-terminus)) [Clone S2-GFP]”: in the data set with FN fibrils [1], the FN fibril binding result is on record as “completely ablated FN fibril binding”.

For GSYDWTKLPGLE [Clone 2, 16, 31, 48], the “FN matrix accumulation” value with FN matrix assembly is given as “did not appear to impact FN matrix assembly”. On FN fibrils [2], the “pattern of phage staining, co-localization with FN matrix” value is “created a fibrillar pattern that colocalized with the FN matrix better than the other phages”. The “Manders' coefficient with a higher concentration of phage” value at FN fibrils [3] is listed as “maintenance of the high Manders' coefficient”. For the same molecule, the “Manders' Coefficient” value at FN fibrils [3] (overlap of the phage fluorescence with FN, growing fibroblast cultures) is given as 0.91. On FN fibrils [3] (phage incubated with fibroblasts as they assembled fibrils), the “labeling of FN fibrils with incorporated phage” value was “complete labeling of FN fibrils with incorporated phage”.

As for DYSYFDLWYSDT [Clone 12, 29], the “Manders' coefficient with a higher concentration of phage” value on FN fibrils [3] was “the Manders' coefficient did not indicate higher coverage with inclusion of more phage”.

Regarding “GST-S20-GFP: fusion protein of GST, S20 peptide and GFP (SDITPWWLLAQD; not fully specified (N-terminus, C-terminus); also: fusion protein, GST dimerising)”, the FN fibril binding entry with FN fibrils [1] is “no detectable FN fibril binding”. The “impact on matrix accumulation” value in the data set with FN matrix accumulation is given as “neither the S3 or S20 fusion proteins showed any matrix binding capacity or impact on matrix accumulation”.

As to NHVALWGTGTAS [Clone S3], the “effect on matrix formation” value in the data set with FN matrix is “inhibits matrix formation”.

Consider SDITPWWLLAQD [Clone 20, 21, 46], for which the “FN matrix accumulation” value in the data set on FN matrix assembly is “increased FN matrix assembly by two-fold”.

For SDITPWWLLAQD [Clone S20], the “effect on matrix formation” value with FN matrix was “enhances matrix formation”. In addition, the “enhancement of matrix formation” value in the data set on FN matrix (incubated with cells during matrix assembly) was found to be 60%.

Turning to HWSGTHALSGRA (peptide, not shown: large carriers, not fully specified) [M13 phage clone 9 (9, 42) displaying …], in data set [4], the Manders' Coefficient was found to be 0.588.

Turning to HNQTMWWTFPST (peptide, not shown: large carriers, not fully specified) [M13 phage clone 4 (4, 44) displaying …], the Manders' Coefficient in data set [4] was found to be 0.47.

SITEFNLLPGLW (peptide, not shown: large carriers, not fully specified) [M13 phage clone 6 (6, 35) displaying …]: the Manders' Coefficient in [4] stood at 0.606.

B1: M13 phage clone 12 (12, 29) displaying DYSYFDLWYSDT (peptide)
chain: DYSYFDLWYSDT
modifications: not fully specified (C-terminus)
notes: Whole phage particle stood in the assay; not shown: pIII protein of M13 phage; the peptide is its N-terminal fusion
For B1, the “Manders' Coefficient” value in data set [5] came out at 0.746.

For the molecule IAYPTDMSLSYK (peptide, not shown: large carriers, not fully specified) [M13 phage clone 33 displaying …], the Manders' Coefficient in data set [4] amounted to 0.56.

As for AHXRLSGSAPMF-{pIII (M13 phage)} (peptide, not shown: large carriers, not fully specified) [M13 phage clone 7 (7, 22, 38) displaying AHB…], the Manders' Coefficient in data set [4] was determined as 0.39.

With SDITPWWLLAQD (peptide, not shown: large carriers, not fully specified) [M13 phage clone 20 (20, 21, 46) displaying … (S20)], the matrix formation (FIG. 2 immunoblot) in data set [6] is 60%. Also, the Manders' Coefficient in data set [4] was 0.552.

As for VSGYNVMPLNGD (peptide, not shown: large carriers, not fully specified) [M13 phage clone 1 displaying …], in data set [4], the Manders' Coefficient was determined as 0.253.

Regarding DHVSLSGRSAAM (peptide, not shown: large carriers, not fully specified) [M13 phage clone 11 displaying …], in [4], the Manders' Coefficient is 0.173.

Consider YVTNWGSLSGSY (peptide, not shown: large carriers, not fully specified) [M13 phage clone 23 displaying …], for which the Manders' Coefficient in data set [4] is 0.675.

As for NHVALWGTGTAS (peptide, not shown: large carriers, not fully specified) [M13 phage clone 3 (3, 5, 27, 28) displaying … (S3)], the Manders' Coefficient in data set [4] worked out at 0.527.

B2: M13 phage clone 2 (2, 16, 31, 48) displaying GSYDWTKLPGLE (S2) (peptide)
chain: GSYDWTKLPGLE
modifications: not fully specified (C-terminus)
notes: Whole phage particle stood in the assay; also called clone S2; clone s2; not shown: pIII protein of M13 phage; the peptide is its N-terminal fusion
For the molecule B2, the “Manders' Coefficient” value in data set [5] came out at 0.913.

For WHVALTGNNLER (peptide, not shown: large carriers, not fully specified) [M13 phage clone 37 displaying …], in data set [4], the Manders' Coefficient is 0.698.

B3: M13 phage clone 39 displaying YSTTMWQYLPGA (peptide)
chain: YSTTMWQYLPGA
modifications: not fully specified (C-terminus)
notes: as for B1
Regarding B3, the “Manders' Coefficient” value in [5] was found to be 0.677.

As for DHIPLRGQRVWQ (peptide, not shown: large carriers, not fully specified) [M13 phage clone 19 (19, 24, 32, 41, 45) displaying …], the Manders' Coefficient in [4] is 0.397.
